Reference: publication PMC3788043 (Journal of the American Society for Mass Spectrometry, 2013)
Substitutions are numbered along the chain they refer to. Names and notes keep the numbering of the source.

What was measured:
[1] = target: the molecule itself; experiment: cross-linking
[2] = target: urease apoprotein (UreABC)3 (Klebsiella aerogenes, UniProt P18316 1-100; P18315 1-106; P18314 1-567); experiment: native MS
Chain of urease apoprotein (UreABC)3 (P18316 whole entry, chain 1 of 3): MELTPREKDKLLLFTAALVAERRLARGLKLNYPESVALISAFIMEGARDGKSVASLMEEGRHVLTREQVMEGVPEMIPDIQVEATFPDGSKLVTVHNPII
Chain of urease apoprotein (UreABC)3 (P18315 whole entry, chain 2 of 3): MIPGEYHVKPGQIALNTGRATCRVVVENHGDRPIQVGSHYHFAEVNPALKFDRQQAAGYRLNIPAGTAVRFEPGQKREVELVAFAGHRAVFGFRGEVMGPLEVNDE
Chain of urease apoprotein (UreABC)3 (P18314 whole entry, chain 3 of 3): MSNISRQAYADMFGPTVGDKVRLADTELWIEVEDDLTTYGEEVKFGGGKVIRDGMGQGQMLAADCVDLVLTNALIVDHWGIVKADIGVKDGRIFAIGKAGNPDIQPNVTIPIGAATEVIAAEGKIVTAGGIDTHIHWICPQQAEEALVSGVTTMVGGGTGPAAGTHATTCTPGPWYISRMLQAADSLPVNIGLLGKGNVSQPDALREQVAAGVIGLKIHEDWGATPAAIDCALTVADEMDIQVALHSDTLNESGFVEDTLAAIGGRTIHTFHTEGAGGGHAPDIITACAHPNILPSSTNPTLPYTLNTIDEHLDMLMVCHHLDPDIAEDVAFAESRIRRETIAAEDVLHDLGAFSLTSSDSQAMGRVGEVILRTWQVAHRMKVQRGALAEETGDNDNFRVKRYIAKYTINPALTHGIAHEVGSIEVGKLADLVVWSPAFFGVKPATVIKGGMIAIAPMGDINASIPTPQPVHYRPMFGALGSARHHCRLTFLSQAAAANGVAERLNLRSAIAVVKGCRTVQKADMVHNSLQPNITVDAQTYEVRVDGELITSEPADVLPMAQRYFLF

B1: K165A variant of UreF (natural protein)
chain: MSTAEQRLRLMQLASSNLPVGGYSWSQGLEWAVEAGWVLDVAAFERWQRRQMTEGFFTVDLPLFARLYRACEQGDIAAAQRWTAYLLACRETRELREEERNRGAAFARLLSDWQPDCPPPWRSLCQQSQLAGMAWLGVRWRIALPEMALSLGYSWIESAVMAGVALVPFGQQAAQQLILRLCDHYAAEMPRALAAPDGDIGSATPLAAIASARHETQYSRLFRS
binding result [1]: binds

B2: maltose binding protein fusion of UreD (MBP-UreD) (natural protein, Klebsiella aerogenes, UniProt Q09063 1-270, looked up)
chain: MLPPLKKGWQATLDLRFHQAGGKTVLASAQHVGPLTVQRPFYPEEETCHLYLLHPPGGIVGGDELTISAHLAPGCHTLITMPGASKFYRSSGAQALVRQQLTLAPQATLEWLPQDAIFFPGANARLFTTFHLCASSRLLAWDLLCLGRPVIGETFSHGTLSNRLEVWVDNEPLLVERLHLQEGELSSIAERPWVGTLLCYPATDALLDGVRDALAPLGLYAGASLTDRLLTVRFLSDDNLICQRVMRDVWQFLRPHLTGKSPVLPRIWLT
binding result [2]: binds

B3: MBP-UreD:UreF (complex, Klebsiella aerogenes)
chain 1: B2 chain
chain 2: B1 chain with A165K
binding result [2]: binds
